Measurements: paper PMC12153800 (2025)

T1: HiBiT-FZD8-mCherry (mouse, UniProt Q61091 28-685)
T1 chain: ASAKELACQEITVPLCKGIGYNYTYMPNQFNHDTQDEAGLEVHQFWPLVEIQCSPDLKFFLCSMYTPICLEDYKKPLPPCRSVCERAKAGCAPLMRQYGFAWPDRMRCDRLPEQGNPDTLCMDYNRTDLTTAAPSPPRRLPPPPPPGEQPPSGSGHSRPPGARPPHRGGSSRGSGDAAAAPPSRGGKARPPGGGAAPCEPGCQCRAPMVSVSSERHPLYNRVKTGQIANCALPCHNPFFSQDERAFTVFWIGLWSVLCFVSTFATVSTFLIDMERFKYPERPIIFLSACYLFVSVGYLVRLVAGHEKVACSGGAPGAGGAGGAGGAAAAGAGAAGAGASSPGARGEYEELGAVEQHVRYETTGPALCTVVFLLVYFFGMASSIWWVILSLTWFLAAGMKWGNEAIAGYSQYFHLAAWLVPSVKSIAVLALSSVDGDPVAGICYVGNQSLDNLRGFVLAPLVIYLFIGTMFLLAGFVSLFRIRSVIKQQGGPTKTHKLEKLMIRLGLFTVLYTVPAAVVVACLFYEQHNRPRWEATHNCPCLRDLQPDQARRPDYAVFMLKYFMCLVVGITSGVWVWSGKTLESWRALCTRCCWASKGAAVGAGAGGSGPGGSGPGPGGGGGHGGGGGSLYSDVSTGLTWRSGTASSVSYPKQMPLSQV

T2: HiBiT-FZD4-mCherry (mouse, UniProt Q61088 37-537)
T2 chain: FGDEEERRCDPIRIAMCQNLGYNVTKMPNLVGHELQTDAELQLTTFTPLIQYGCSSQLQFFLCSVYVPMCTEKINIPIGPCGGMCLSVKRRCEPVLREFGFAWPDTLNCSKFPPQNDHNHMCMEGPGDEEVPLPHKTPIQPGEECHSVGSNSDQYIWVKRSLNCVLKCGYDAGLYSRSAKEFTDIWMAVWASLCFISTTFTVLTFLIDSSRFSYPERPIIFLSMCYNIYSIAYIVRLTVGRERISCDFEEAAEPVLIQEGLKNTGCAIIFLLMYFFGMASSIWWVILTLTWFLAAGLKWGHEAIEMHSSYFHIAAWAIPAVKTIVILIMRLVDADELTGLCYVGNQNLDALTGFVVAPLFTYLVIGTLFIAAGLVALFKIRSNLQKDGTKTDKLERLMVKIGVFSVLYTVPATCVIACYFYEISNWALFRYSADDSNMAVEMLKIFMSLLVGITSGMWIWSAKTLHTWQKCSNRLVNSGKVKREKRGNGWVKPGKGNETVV

T3: HiBiT-FZD5-mCherry (U-2 OS cells) (mouse, UniProt Q9EQD0 27-585)
T3 chain: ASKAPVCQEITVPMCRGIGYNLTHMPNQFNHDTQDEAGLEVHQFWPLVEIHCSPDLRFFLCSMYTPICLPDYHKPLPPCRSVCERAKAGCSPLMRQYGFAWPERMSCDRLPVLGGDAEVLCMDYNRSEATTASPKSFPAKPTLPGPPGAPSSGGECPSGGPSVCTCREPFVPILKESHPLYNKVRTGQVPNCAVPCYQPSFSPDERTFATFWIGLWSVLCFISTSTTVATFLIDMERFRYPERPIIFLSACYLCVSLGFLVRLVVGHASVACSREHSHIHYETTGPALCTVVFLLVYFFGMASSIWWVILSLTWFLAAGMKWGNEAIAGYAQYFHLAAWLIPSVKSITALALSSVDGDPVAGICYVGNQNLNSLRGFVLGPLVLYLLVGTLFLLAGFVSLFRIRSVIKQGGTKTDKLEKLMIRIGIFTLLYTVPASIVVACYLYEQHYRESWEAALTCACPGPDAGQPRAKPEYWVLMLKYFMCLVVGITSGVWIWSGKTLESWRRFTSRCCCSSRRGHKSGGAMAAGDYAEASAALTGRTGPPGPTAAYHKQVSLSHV

B1: eGFP-Wnt16 (ligand)
chain: NWMWLGIASFGVPEKLGCANLPLNSRQKELCKRKPYLLPSIREGARLGIQECGSQFRHERWNCMITAAATTAPMGASPLFGYELSSGTKETAFIYAVMAAGLVHSVTRSCSAGNMTECSCDTTLQNGGSASEGWHWGGCSDDVQYGMWFSRKFLDFPIGNTTGKENKVLLAMNLHNNEAGRQAVAKLMSVDCRCHGVSGSCAVKTCWKTMSSFEKIGHLLKDKYENSIQISDKTKRKMRRREKDQRKIPIHKDDLLYVNKSPNYCVEDKKLGIPGTQGRECNRTSEGADGCNLLCCGRGYNTHVVRHVERCECKFIWCCYVRCRRCESMTDVHTCK
B2: eGFP-Wnt5a (ligand)
chain: IIGAQPLCSQLAGLSQGQKKLCHLYQDHMQYIGEGAKTGIKECQYQFRHRRWNCSTVDNTSVFGRVMQIGSRETAFTYAVSAAGVVNAMSRACREGELSTCGCSRAARPKDLPRDWLWGGCGDNIDYGYRFAKEFVDARERERIHAKGSYESARILMNLHNNEAGRRTVYNLADVACKCHGVSGSCSLKTCWLQLADFRKVGDALKEKYDSAAAMRLNSRGKLVQVNSRFNSPTTQDLVYIDPSPDYCVRNESTGSLGTQGRLCNKTSEGMDGCELMCCGRGYDQFKTVQTERCHCKFHWCCYVKCKKCTEIVDQFVCK

Key:
HiBiT-FZD8-mCherry = molecular target: T1, HiBiT-FZD8-mCherry
HiBiT-FZD2-mCherry = HiBiT-FZD2-mCherry (mouse, UniProt Q9JIP6 29-570)
HiBiT-FZD7-mCherry = HiBiT-FZD7-mCherry (mouse, UniProt Q61090 33-572)
HiBiT-FZD1-mCherry = HiBiT-FZD1-mCherry (mouse, UniProt O70421 69-642)
HiBiT-FZD4-mCherry = molecular target: T2, HiBiT-FZD4-mCherry
[1] = molecular target: T3, HiBiT-FZD5-mCherry (U-2 OS cells)

Chain of HiBiT-FZD2-mCherry (Q9JIP6 29-570): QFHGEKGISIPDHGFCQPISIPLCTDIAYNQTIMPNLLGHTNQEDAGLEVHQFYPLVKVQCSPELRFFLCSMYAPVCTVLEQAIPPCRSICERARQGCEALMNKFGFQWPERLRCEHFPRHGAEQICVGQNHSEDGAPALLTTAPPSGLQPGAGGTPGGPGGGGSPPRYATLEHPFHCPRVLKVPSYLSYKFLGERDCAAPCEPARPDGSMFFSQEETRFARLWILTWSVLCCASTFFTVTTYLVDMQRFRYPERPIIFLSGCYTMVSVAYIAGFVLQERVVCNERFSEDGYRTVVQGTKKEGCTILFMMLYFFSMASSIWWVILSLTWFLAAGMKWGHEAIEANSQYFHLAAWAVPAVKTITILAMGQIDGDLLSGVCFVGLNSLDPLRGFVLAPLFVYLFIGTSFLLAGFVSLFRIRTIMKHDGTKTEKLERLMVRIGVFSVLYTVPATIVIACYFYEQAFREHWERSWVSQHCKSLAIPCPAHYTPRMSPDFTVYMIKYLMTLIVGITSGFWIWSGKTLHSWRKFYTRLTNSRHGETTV
Chain of HiBiT-FZD1-mCherry (O70421 69-642): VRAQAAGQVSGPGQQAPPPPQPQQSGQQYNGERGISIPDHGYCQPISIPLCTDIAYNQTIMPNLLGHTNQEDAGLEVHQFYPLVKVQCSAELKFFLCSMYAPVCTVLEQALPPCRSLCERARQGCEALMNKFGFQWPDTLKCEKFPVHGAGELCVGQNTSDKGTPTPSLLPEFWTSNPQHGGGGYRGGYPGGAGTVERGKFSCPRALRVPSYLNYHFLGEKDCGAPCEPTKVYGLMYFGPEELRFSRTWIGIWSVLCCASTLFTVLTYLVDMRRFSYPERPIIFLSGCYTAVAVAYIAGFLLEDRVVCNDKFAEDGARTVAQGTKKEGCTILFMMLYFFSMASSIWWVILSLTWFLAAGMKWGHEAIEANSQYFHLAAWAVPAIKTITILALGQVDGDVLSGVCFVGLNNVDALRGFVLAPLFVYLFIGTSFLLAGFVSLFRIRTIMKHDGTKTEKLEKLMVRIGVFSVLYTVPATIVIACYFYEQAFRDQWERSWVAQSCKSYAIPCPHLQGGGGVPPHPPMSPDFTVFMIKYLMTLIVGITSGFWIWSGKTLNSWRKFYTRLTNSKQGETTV

Row | Binder | Kd (HiBiT-FZD8-mCherry) [nM] | Kd (HiBiT-FZD2-mCherry) [nM] | Kd (HiBiT-FZD7-mCherry) [nM] | Kd (HiBiT-FZD1-mCherry) [nM] | Kd (HiBiT-FZD4-mCherry) [nM] | Kd [1] [nM]
1 | B1 | 6.62 | 10.6 | 10.3 | 30.7 | 21.8 | 14.2
2 | B2 | 7.52 | 3.85 | 1.25 | 14.4 | 3.56 | 16.2
